Laboratory results as given in patent US20240316099A1.

Molecular target: NKG2D ligands
Assay: cell-based or functional assay

B1: chimeric NKG2D receptor (NKG2D.ζ), expressed on primary human NK cells (receptor)
chain: MRVKFSRSAEPPAYQQGQNQLYNELNLGRREEYDVLDKRRGRDPEMGGKPRRKNPQEGLYNELQKDKMAEAYSEIGMKGERRRGKGHDGLYQGLSTATKDTYDALHMQALPPRGWIRGRRSRHSWEMSEFHNYNLDLKKSDFSTRWQKQRCPVVKSKCRENASPFFFCCFIAVAMGIRFIIMVAIWSAVFLNSLFNQEVQIPLTESYCGPCPKNWICYKNNCYQFFDESKNWYESQASCMSQNASLLKVYSKEDQDLLKLVKSYHWMGLVHIPTNGSWQWEDGSILSPNLLTIIEMQKGDCALYASSFKGYIENCSTPNTYICMQRTV
- cytotoxicity against autologous MDSCs, 4-hour chromium-release assay, E:T ratio of 5:1: 35%
- cytotoxicity against wild-type K562 in a 4-hour cytotoxicity assay, 2:1 E:T ratio: 79.2%
- lysis of autologous immature dendritic cells, E:T ratio of 20:1: 4.2%
